± gives the uncertainty stated by the source.
Assay: self-splicing fitness, log relative to wild type (ln ratio); higher = more splicing; Tetrahymena group I intron in knt gene, E. coli kanamycin selection, DiMSum; sequences stand for … in CUCUCU…GGAGGGAAAAGUUAUCAGGCAUGCACCUGGUAGCUAGUCUUUAAACCAAUAGAUUGCAUCGGUUUAAAAGGCAAGACCGUCAAAUUGCGGGAAAGGGGUCAACAGCCGUUCAGUACCAAGUCUCAGGGGAAACUUUGAGAUGGCCUUGCAAAGGGUAUGGUAAUAAGCUGACGGACAUGGUCCUAACCACGCAGCCAAGUCCUAAGUCAACAGAUCUUCUGUUGAUAUGGAUGCAGUUCACAGACUAAAUGUCGGUCGGGGAAGAUGUAUUCUUCUCAUAAGAUAUAGUCGGACCUCUCCUUAAUGGGAGCUAGCGGAUGAAGUGAUGCAACACUGGAGCCGCUGGGAACUAAUUUGUAUGCGAAAGUAUAUUGAUUAGUUUUGGAGUACUCGUGGUCG
Summary of the method: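 Colonies from six replicate transformations of E. coli BL21(DE3) were pooled and amplicon-sequenced on an Illumina HiSeq 2500. The library placed an intron with all eight P1ex-region nucleotides randomised inside the knt kanamycin-resistance gene on pET-22b(+), and cells grew overnight at 37°C or 30°C on LB agar with or without 25 μg/mL kanamycin (plus 100 μg/mL carbenicillin, 50 μM IPTG, 0.2% rhamnose). Fitness is the DiMSum error-weighted combination of wild-type-normalised replicate fold changes, kanamycin versus none.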

Sequence	self-splicing fitness (ln) (30 °C)	self-splicing fitness (ln) (37 °C)
ACACAGCAAUAUUACGUGAA	-1.84 ± 0.055	-1.11 ± 0.079
UGUUAGCAAUAUUACGUUUC	-3.91 ± 0.46	-2.06 ± 0.33
CGACAGCAAUAUUACGAUAU	-2.96 ± 0.14	-2.84 ± 0.12
AGCAAGCAAUAUUACGUUCG	-2.66 ± 0.084	-1.44 ± 0.09
UUAUAGCAAUAUUACGUGAA	-1.91 ± 0.18	-0.849 ± 0.17
UAUAAGCAAUAUUACGUGAG	-1.56 ± 0.1	-1.12 ± 0.14
CCUAAGCAAUAUUACGACGA	-2.67 ± 0.24	-2.1 ± 0.38
AGGAAGCAAUAUUACGUAAA	-2.59 ± 0.18	-1.88 ± 0.18
CAGGAGCAAUAUUACGUGAG	-1.42 ± 0.084	-0.711 ± 0.098
GAGCAGCAAUAUUACGACGA	-0.16 ± 0.15	0.077 ± 0.17
AGACAGCAAUAUUACGCAGA	-2.56 ± 0.27	-1.38 ± 0.2
GCCAAGCAAUAUUACGCUUA	-1.02 ± 0.086	-0.264 ± 0.11
CCAUAGCAAUAUUACGCUGC	-3.84 ± 0.3	-2.25 ± 0.27
AGCCAGCAAUAUUACGGAUC	-2.03 ± 0.1	-1.25 ± 0.13
CGUCAGCAAUAUUACGUUUA	-2.93 ± 0.18	-1.66 ± 0.16
UUGCAGCAAUAUUACGUGCU	-3.19 ± 0.22	-1.84 ± 0.22
GGCCAGCAAUAUUACGUGCC	-3 ± 0.15	-0.478 ± 0.24
AUUAAGCAAUAUUACGCUAA	-1.89 ± 0.17	-0.434 ± 0.13
UGUGAGCAAUAUUACGUCAU		-1.32 ± 0.4
CUACAGCAAUAUUACGGCCU	-4.36 ± 0.33	-1.68 ± 0.21
UAACAGCAAUAUUACGAUUU	-1.47 ± 0.056	-0.218 ± 0.065
ACUGAGCAAUAUUACGGCUA	-1.61 ± 0.15	-1.63 ± 0.16
GUGCAGCAAUAUUACGCAAG	-1.5 ± 0.1	-0.974 ± 0.12
GGGAAGCAAUAUUACGGGCA	-1.9 ± 0.19	0.154 ± 0.21
AGCUAGCAAUAUUACGCGUG	-1.6 ± 0.088	-1.53 ± 0.12

Sequence	self-splicing fitness (ln) (30 °C)	self-splicing fitness (ln) (37 °C)
GUCCAGCAAUAUUACGCCUG	-2.5 ± 0.2	-0.12 ± 0.21
CCCGAGCAAUAUUACGGCUA	-3.46 ± 0.29	-3.2 ± 0.32
AGGUAGCAAUAUUACGUCUU	-0.915 ± 0.014	-0.371 ± 0.033
UUGUAGCAAUAUUACGUACU	-0.641 ± 0.12	-0.216 ± 0.14
CGGUAGCAAUAUUACGCAGA	-1.8 ± 0.29	-1.91 ± 0.2
GGCGAGCAAUAUUACGAGUU	-2.42 ± 0.14	-1.19 ± 0.16
GCGCAGCAAUAUUACGUAAC	-1.3 ± 0.088	-0.468 ± 0.12
GAUCAGCAAUAUUACGCGGA	-1.45 ± 0.18	-0.828 ± 0.14
GUUCAGCAAUAUUACGGAUC	-1.33 ± 0.098	-0.366 ± 0.1
UAAGAGCAAUAUUACGUCUU	-3.28 ± 0.2	-1.49 ± 0.18
UGGUAGCAAUAUUACGGUCG	-0.382 ± 0.12	-0.0256 ± 0.16
CUUUAGCAAUAUUACGCGCG	-1.05 ± 0.14	-0.656 ± 0.17
CGAGAGCAAUAUUACGGCCU	-2.61 ± 0.39	-2.63 ± 0.44
UAAAAGCAAUAUUACGACGA	-0.526 ± 0.087	-0.201 ± 0.086
UUUUAGCAAUAUUACGCCCU	-2.16 ± 0.35	-0.426 ± 0.28
AUCUAGCAAUAUUACGUUGU	-3.68 ± 0.17	-2.27 ± 0.13
ACAGAGCAAUAUUACGCUUU	-2.28 ± 0.26	-2.45 ± 0.23
CAUCAGCAAUAUUACGGUGG	-0.952 ± 0.045	-0.393 ± 0.068
GCAUAGCAAUAUUACGUUAG	-2.48 ± 0.12	-1.96 ± 0.15
GGUGAGCAAUAUUACGUAGA	-3.01 ± 0.33	-2.19 ± 0.29
GACAAGCAAUAUUACGCACU	0.582 ± 0.11	-0.112 ± 0.12
AUAGAGCAAUAUUACGUCGU	-0.0699 ± 0.096	-0.158 ± 0.1
UGGGAGCAAUAUUACGCCCA	-1.61 ± 0.4	
AGACAGCAAUAUUACGUCCC	-2.45 ± 0.18	-0.529 ± 0.17
AGACAGCAAUAUUACGUCUU	-4.54 ± 0.25	-2.74 ± 0.18

Sequence	self-splicing fitness (ln) (30 °C)	self-splicing fitness (ln) (37 °C)
AAAGAGCAAUAUUACGAGAC	-3.51 ± 0.35	-2.11 ± 0.27
CUAAAGCAAUAUUACGACCU	-4.28 ± 0.46	-1.97 ± 0.22
CUAUAGCAAUAUUACGACGU	-3.85 ± 0.37	-1.96 ± 0.3
CGAGAGCAAUAUUACGUAGU	-2.78 ± 0.3	-1.7 ± 0.27
GACAAGCAAUAUUACGUAGG	-3.07 ± 0.11	-2.22 ± 0.13
ACAGAGCAAUAUUACGGGUC	-2.99 ± 0.18	-2.89 ± 0.27
ACUUAGCAAUAUUACGUCAG	-1.93 ± 0.11	-1.56 ± 0.12
AACUAGCAAUAUUACGCGUA	-1.19 ± 0.09	-0.289 ± 0.083
AAGAAGCAAUAUUACGUAGC	-3.08 ± 0.25	-2.32 ± 0.31
AAGAAGCAAUAUUACGUUAU	-3.52 ± 0.14	-1.88 ± 0.15
CGCUAGCAAUAUUACGAUCC	-2.01 ± 0.37	-1.74 ± 0.42
AUAGAGCAAUAUUACGUCAU	-0.913 ± 0.087	0.145 ± 0.1
GUUCAGCAAUAUUACGAUUG	-0.497 ± 0.093	-0.904 ± 0.15
UGCAAGCAAUAUUACGGUCA	0.0812 ± 0.064	-0.169 ± 0.065
UAGUAGCAAUAUUACGAUCC	-3.16 ± 0.45	-2.22 ± 0.4
UGAUAGCAAUAUUACGCGGG	-3.28 ± 0.31	-1.7 ± 0.25
CCGGAGCAAUAUUACGAAGU	-4.05 ± 0.26	-1.53 ± 0.23
CAGGAGCAAUAUUACGGUUG	-1.89 ± 0.085	-0.54 ± 0.12
ACACAGCAAUAUUACGGAGG	-2.69 ± 0.076	-2.15 ± 0.098
CUGAAGCAAUAUUACGUUAU	-4.59 ± 0.23	-3.63 ± 0.37
CAAAAGCAAUAUUACGUCCU	-2.18 ± 0.087	-0.725 ± 0.09
UUGCAGCAAUAUUACGGUCG	-0.4 ± 0.089	0.21 ± 0.12
UGGUAGCAAUAUUACGAAAU	-2.72 ± 0.28	-3.17 ± 0.31
UCAUAGCAAUAUUACGGUCA	-1.1 ± 0.16	-0.484 ± 0.16
GAUCAGCAAUAUUACGGCAA	-0.689 ± 0.084	-1.24 ± 0.087

Reference: the supplement of paper PMC7877785
